In publication doi:10.1101/2022.08.10.503460:
Blank lines part the entries; values can stand above or below the substance they belong to.

Experiments:
Pcdh15 EC1-11 PICA [1] = test: AFM force-clamp spectroscopy
full-length Cdh23 EC1-27 = test: AFM force-clamp spectroscopy
Cdh23 EC1-5 = test: AFM force-clamp spectroscopy
[2] = molecular target: Mouse Cdh23 EC1-2 (mouse) (UniProt Q99PF4); test: AFM force-clamp spectroscopy
Pcdh15 EC1-11 PICA [3] = molecular target: Pcdh15 EC1-11 PICA

Sequence of Mouse Cdh23 EC1-2 (mouse) (Q99PF4 24-228): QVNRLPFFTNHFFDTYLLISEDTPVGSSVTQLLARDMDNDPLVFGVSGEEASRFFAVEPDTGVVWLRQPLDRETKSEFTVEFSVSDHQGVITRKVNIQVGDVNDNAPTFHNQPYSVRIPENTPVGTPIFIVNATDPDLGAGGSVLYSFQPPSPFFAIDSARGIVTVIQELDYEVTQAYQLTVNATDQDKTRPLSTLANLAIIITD

intrinsic lifetime at no force (τ0) (Pcdh15 EC1-11 PICA [1]): 30 s
Substance: Cdh23 EC1-27 Fc dimer (Fc fusion)

Substance: Mouse Pcdh15 EC1-2 (from UniProt Q99PJ1 27-259) (domain or fragment)
zero-force lifetime (full-length Cdh23 EC1-27): 10 s
zero-force lifetime (Cdh23 EC1-5): 1.5 s

koff [2]: 0.3 s⁻¹
Substance: Pcdh15 EC1-2 (R113G), Q99PJ1 27-259 (domain or fragment; other documents disagree on this pair)

stoichiometry N (Pcdh15 EC1-11 PICA [3]): 2
Substance: Pcdh15 EC1-11 PICA (domain or fragment)
